Data reported in patent US7271245B2, “Methods and compositions for inhibition of metastasis” (The Scripps Research Institute, priority 2004, dated 2007).

Legend:
Assay type in all cases: cell-based
BMS breast cancer cells = experiment: Tumor cell arrest during blood flow; settings: 3 μM scFv, human blood, collagen I matrix, shear rate 50 s^−1
Procedure: (§1) FIGS. 3A, 3B, 3C, 3D, 3E. scFv Bc-12 and Bc-15 inhibit αvβ3 mediated adhesive breast cancer cell functions. (A) Adhesion of BMS human breast cancer cells to fibrinogen (Fg), vitronectin (VN) or type I collagen (Col I) in the absence or presence of 3 μM Bc-12, Bc-15 or their RGE mutants Mut-12, Mut-15, compared to 200 μM GRGDSPK peptide (SEQ ID NO: 11). Protein coating concentrations: 10 μg/ml (VN, Col I) or 20 μg/ml (Fg). Adhesion time: 30 min at 37° C. (B) Effect of scFvs on haptotactic BMS cell migration toward a fibrinogen substrate (16 hrs at 37° C. in transwell chambers with or without 2 μM Bc-12, Bc-15 or their RGE mutants Mut-12 or Mut-15, compared to 200 μM GRGDSPK peptide) (SEQ ID NO: 11). (C) Effect of scFvs on breast cancer cell arrest during blood flow. Metastatic BMS cells, labeled with hydroethidine, were suspended in human blood (anticoagulated with 50 nM PPACK) and perfused over a collagen I matrix at a venous wall shear rate of 50 s^−1. Under these conditions, breast cancer cells arrest by αvβ3 mediated binding to adherent, thrombus forming platelets. Tumor cell adhesion was quantified by image acquisition at 30 predefined positions during blood flow. Left: representative images of platelet signal (thrombi, green fluorescence) and tumor cell signal (red fluorescence) at identical x,y positions. […]
Tumor cell arrest during bloodflow. Breast cancer cell arrest during blood flow and interaction with platelets was measured as described. […] Adhesive events and cell interactions were visualized and recorded by fluorescence video microscopy and quantified by image acquisition at 30 predefined positions followed by computerized image analysis (MetaMorph, Universal Imaging). Tumor cells were stained with hydroethidine (red fluorescence) (20 μg/ml, 30 min, 37° C.), washed, and mixed with blood containing 10 μM mepacrine (green fluorescence). Blood cells, tumor cells, and platelets acquired green fluorescence and were visualized at 488/515 nm (excitation/emission). Tumor cells were identified by their unique red fluorescence at 543/590 nm. […]

[1] = test system: human breast cancer cell lines, isolated from patient blood samples; experiment: Growth of breast cancer cell cultures in presence of scFv; settings: 2 μM scFv, 4 days after seeding
[2] = test system: BMS human breast cancer cells; experiment: Haptotactic tumor cell migration toward fibrinogen (transwell); settings: 2 μM scFv, 16 hrs at 37° C.
Procedure: as §1, with “positions. Right: Number of arrested tumor cells in the presence of 3 μM non-function blocking anti αv scFv Bc-20 or function blocking anti αvβ3 scFvs Bc-12 or Bc-15. (D) scFv Bc-15 is internalized by human breast cancer cells and reduces cell proliferation. Left: confocal images of BMS cells incubated for 4 hrs with FITC-Bc-15 at 4° C. (binding) versus 37° C. (allowing internalization). Right: Phase contrast images of BMS cell cultures 4 days after seeding in the presence of 2 μM RGE containing scFv Mut-15, or RGD containing Bc-15.” for “positions.”
Cell adhesion and migration. Tumor cell adhesion under stationary conditions was analyzed as detailed earlier (19). […] Haptotactic tumor cell migration toward fibrinogen was analyzed in transwell chambers as detailed earlier. […]

Molecule	breast cancer cell arrest during blood flow (BMS breast cancer cells)	growth of breast cancer cell lines [1]	fibrinogen directed migration [2]
Bc-12: patient derived human scFv antibody against activated αvβ3 with RGD motif in CDR-H3; cDNA ATCC PTA-6303 (protein) scFv: MAQVQLVQSGAEVKKPGASVKVSCKASGYTFSNYGITWVRQAPGQGLEWMGWINNGNTHYAQKFQGRVTMTTDTSTSTAYMELRSLRSDDTAVYYCARDPRGDDEPYWGQGTLVTVSSGGGGSGGGGSGGGGSEIVLTQSPLSLPVTLGQPASISCRSSQNLVYSDGNTYLSWFQQRPGQSPRRLIYKVSNRDSGVPDRFSGSGSGTDFTLKISRVEAEDIGVYYCMQGTHWPPRTFGQGTKVEIKRGLGGLVDYKDDDDK	efficiently inhibited	retarded	inhibited BMS human breast cancer cell migration almost completely
Mut-12: RGE containing mutant version of scFv Bc-12 (protein) MAQVQLVQSGAEVKKPGASVKVSCKASGYTFSNYGITWVRQAPGQGLEWMGWINNGNTHYAQKFQGRVTMTTDTSTSTAYMELRSLRSDDTAVYYCARDPRGEDEPYWGQGTLVTVSSGGGGSGGGGSGGGGSEIVLTQSPLSLPVTLGQPASISCRSSQNLVYSDGNTYLSWFQQRPGQSPRRLIYKVSNRDSGVPDRFSGSGSGTDFTLKISRVEAEDIGVYYCMQGTHWPPRTFGQGTKVEIKRGLGGLVDYKDDDDK	no effect	no effect	only a minor effect
